Measurements as given in paper PMC6220335, “Molecular structure of promoter-bound yeast TFIID” (Nature Communications, 2018).

B1: Taf14, subunit of Komagataella phaffii TFIID (natural protein, UniProt F2QLE3 1-247, looked up)
chain: MSDLKRTVRITTTQNVLKDIPPIEKGFPMRKWSISVSLLNDQGKEIPATIFDKVTYHLHPTFENPVRVFKQPPFKIEEQGWGEFDMKIALTIAEKGGERKISHDLNFLKEKYIVDHVISVPTNKPGLLALLAESGPVPSSEGATTPGLSSVTEKRKTSLVGDVKAKKVKTSSGAVKGGVDLEKLADGLTKLSEDDLLGVVQMVTDNRSPEMNIKNDVDEGEFTMDLYSLPDSLLKSLWEYVKKHADV
notes: Taf14, yeast-specific TFIID subunit of Komagataella phaffii (formerly Pichia pastoris); YEATS domain docked in the Taf2 lobe of the cryo-EM map; source: endogenous, K. phaffii nuclear extract; co-purified in TFIID by SBP-tagged Taf2 (streptavidin beads, sucrose gradient)
B2: Taf11, subunit of Komagataella phaffii TFIID (natural protein, UniProt F2QRB1 1-281, looked up)
chain: MSPKPESEIDQGPSVSVTSAEEKSRLEEVKDVHEDPKAEEGLVSAPQGSDTLGQEGKTEKEQNEAKGDIEEESEESAEEDEEEEEEIVDDQISYALNYLFQDIHEKIRLRETQRDTTQDEFELSRQEKVGLLLENFDQDQMTRYEFFRRANVNKSVAKRIVQSVLGQSINNNVALLVSTVSKMFVGEMVEKAKEVQSRRQKAQILEQISQRKAAIKNIRKRDLDESVVDQIMNSKRIRIPKDEPLSPEDIREAWRLYQLETNVLPSNQWRRQGGGDGNMFR
notes: Taf11, TFIID subunit of the yeast Komagataella phaffii (formerly Pichia pastoris); histone-fold domain modelled in the cryo-EM map; source: endogenous, K. phaffii nuclear extract; co-purified in TFIID by SBP-tagged Taf2 (streptavidin beads, sucrose gradient)

Key:
[1] = target: T1, Taf2 with C-terminal streptavidin-binding peptide tag, subunit of Komagataella phaffii TFIID (Komagataella phaffii, UniProt F2QRH9 1-1571); assay: affinity purification with mass spectrometry; TFIID purified from K. phaffii nuclear extract by the SBP tag at the C-terminus of Taf2 (streptavidin beads, 250 mM potassium acetate, elution with 10 mM biotin, 10–30% sucrose gradient); SDS-PAGE and mass spectrometry of the purified complex; settings: partners not purified
T1 construct: Taf2, TFIID subunit of the yeast Komagataella phaffii (formerly Pichia pastoris); residues 36 to 1194 modelled in the cryo-EM map; bait of the purification; also called SBP-tagged Taf2; source: K. phaffii strain with SBP-tagged Taf2, nuclear extract; purified (streptavidin beads, biotin elution, sucrose gradient)

[2] = target: T2, Taf8, subunit of Komagataella phaffii TFIID (Komagataella phaffii, UniProt F2QT15 1-517); assay: cryo-EM structure; purified TFIID (0.4 µM) with two-fold excess of TFIIA and 2.5–3-fold excess of pGAP promoter DNA, cross-linked with 0.1% glutaraldehyde; focused refinement of the lobes (Taf2 lobe 4.5 Å, Twin lobe 4.8 Å); homology models docked; settings: both partners purified
T2 construct: Taf8, TFIID subunit of the yeast Komagataella phaffii (formerly Pichia pastoris); putative helices placed in the cryo-EM map; also called KpTaf8; source: endogenous, K. phaffii nuclear extract; co-purified in TFIID by SBP-tagged Taf2 (streptavidin beads, sucrose gradient)
T2 sequence (looked up): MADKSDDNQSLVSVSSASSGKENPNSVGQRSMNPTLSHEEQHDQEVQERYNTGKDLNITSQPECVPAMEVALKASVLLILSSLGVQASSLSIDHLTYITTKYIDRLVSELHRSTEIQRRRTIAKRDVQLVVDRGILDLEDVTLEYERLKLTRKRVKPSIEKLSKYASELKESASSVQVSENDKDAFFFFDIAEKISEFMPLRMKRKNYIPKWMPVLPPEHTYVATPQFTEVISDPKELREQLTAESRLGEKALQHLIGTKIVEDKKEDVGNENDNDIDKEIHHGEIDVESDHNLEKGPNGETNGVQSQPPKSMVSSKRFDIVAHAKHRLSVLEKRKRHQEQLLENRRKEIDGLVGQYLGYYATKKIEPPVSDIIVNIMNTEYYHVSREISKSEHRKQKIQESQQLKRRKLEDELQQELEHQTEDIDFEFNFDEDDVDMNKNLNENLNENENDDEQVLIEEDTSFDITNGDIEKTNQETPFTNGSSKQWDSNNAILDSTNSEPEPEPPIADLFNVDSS

[3] = target: T3, Taf12, subunit of Komagataella phaffii TFIID (Komagataella phaffii, UniProt F2QSK7 1-609); assay: cross-linking; 50 µg purified TFIID, 3 mM BS3, 2 h at 25 °C; trypsin, SCX fractionation, Orbitrap Fusion MS; pLink and Nexus, 5% FDR; settings: both partners purified
T3 construct: Taf12, TFIID subunit of the yeast Komagataella phaffii (formerly Pichia pastoris); histone-fold domain modelled in the cryo-EM map; source: endogenous, K. phaffii nuclear extract; co-purified in TFIID by SBP-tagged Taf2 (streptavidin beads, sucrose gradient)
T3 sequence (looked up): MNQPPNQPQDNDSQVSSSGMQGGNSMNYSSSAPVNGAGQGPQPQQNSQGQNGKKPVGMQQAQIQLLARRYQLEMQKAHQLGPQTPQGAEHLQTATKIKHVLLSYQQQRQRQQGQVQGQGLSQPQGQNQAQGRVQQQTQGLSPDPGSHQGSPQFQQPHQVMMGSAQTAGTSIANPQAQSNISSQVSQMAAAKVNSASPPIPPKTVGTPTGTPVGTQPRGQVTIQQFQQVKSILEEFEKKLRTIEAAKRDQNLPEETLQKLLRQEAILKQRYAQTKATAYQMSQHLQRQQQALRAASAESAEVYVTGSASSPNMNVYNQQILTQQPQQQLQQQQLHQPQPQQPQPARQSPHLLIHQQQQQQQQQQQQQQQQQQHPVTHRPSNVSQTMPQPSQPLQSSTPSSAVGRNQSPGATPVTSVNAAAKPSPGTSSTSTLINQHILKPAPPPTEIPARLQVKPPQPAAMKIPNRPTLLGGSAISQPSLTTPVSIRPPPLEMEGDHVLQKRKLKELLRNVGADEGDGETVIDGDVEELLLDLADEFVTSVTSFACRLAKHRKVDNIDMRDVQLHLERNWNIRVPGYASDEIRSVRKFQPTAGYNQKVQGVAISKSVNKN

[4] = target: T4, Taf5, subunit of Komagataella phaffii TFIID (Komagataella phaffii, UniProt F2QWD3 1-722); assay: as above; settings: both partners purified
T4 construct: Taf5, TFIID subunit of the yeast Komagataella phaffii (formerly Pichia pastoris); WD40 repeat and NTD (residues 99–243) modelled in the cryo-EM map; two copies in holo-TFIID; source: endogenous, K. phaffii nuclear extract; co-purified in TFIID by SBP-tagged Taf2 (streptavidin beads, sucrose gradient)
T4 sequence (looked up): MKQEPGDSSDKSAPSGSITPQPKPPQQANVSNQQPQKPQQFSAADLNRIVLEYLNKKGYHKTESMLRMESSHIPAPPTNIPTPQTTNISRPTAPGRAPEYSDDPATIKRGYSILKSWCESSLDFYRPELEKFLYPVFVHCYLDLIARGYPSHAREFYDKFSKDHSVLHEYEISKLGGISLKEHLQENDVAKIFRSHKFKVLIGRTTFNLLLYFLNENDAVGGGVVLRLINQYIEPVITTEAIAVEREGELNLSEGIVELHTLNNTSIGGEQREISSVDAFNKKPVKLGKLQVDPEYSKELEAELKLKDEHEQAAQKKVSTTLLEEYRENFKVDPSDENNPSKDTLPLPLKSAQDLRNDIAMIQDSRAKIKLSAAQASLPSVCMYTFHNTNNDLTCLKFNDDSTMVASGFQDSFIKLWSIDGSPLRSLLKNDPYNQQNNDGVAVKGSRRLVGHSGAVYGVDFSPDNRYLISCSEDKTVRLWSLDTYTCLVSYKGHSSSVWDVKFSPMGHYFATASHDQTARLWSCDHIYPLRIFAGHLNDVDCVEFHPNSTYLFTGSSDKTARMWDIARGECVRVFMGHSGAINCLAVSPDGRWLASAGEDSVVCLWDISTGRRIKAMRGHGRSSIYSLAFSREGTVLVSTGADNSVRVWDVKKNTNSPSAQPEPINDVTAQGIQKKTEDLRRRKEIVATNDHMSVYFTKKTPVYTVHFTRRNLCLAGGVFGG

[5] = target: T5, Taf4, subunit of Komagataella phaffii TFIID (Komagataella phaffii, UniProt F2QWX2 1-411); assay: as above; settings: both partners purified
T5 construct: Taf4, TFIID subunit of the yeast Komagataella phaffii (formerly Pichia pastoris); histone-fold domain modelled in the cryo-EM map; source: endogenous, K. phaffii nuclear extract; co-purified in TFIID by SBP-tagged Taf2 (streptavidin beads, sucrose gradient)
T5 sequence (looked up): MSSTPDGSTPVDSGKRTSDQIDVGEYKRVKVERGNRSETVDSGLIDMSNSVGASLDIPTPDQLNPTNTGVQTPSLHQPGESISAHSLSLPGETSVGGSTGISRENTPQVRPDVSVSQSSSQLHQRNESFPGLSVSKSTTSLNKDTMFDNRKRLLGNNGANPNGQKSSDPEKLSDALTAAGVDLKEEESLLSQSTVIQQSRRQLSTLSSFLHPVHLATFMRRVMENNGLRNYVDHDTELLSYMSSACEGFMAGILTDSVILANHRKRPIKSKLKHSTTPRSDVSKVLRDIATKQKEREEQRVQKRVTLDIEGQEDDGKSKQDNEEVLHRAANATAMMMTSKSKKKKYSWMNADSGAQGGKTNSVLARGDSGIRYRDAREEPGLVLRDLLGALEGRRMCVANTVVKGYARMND

| binding result [1] | binding result [2] | binding result [3] | binding result [4] | binding result [5] | Binder |
| --- | --- | --- | --- | --- | --- |
| binds | binds |  |  |  | B1 |
|  |  | binds | binds | binds | B2 |
